Measured values from patent US20150238641A1 (BRITISH COLUMBIA CANCER AGENCY BRANCH, published 2015).
“And” between values parts separate entries of the source, which are not always exact repeats. Equal values may be shown once. Where no end group is shown, it is not given here. [ ]: non-standard residue; d: D form. The star is where a group is joined. DOTA = O=C(O)CN1CCN(CC(=O)O)CCN(CC(=O)*)CCN(CC(=O)O)CC1; Hyp = O=C(O)[C@@H]1C[C@@H](O)CN1; Cha = N[C@@H](CC1CCCCC1)C(=O)O; Ahx = NCCCCCC(=O)O

Key:
[1] = biological target: T1, human bradykinin B1 receptor (human, UniProt P46663 1-353); test: competitive radioligand binding; hot ligand BK-ANT-ARC 4.6 nM; CHO-K1 hB1R membranes
T1 construct: whole, on cells; Assays were run on cell membrane preparations (50 ug/well), not on intact cells; HEK293T::GFP::hB1R membranes appear only in the saturation assay; also called hB1R; BDKRB1
T1 sequence (looked up): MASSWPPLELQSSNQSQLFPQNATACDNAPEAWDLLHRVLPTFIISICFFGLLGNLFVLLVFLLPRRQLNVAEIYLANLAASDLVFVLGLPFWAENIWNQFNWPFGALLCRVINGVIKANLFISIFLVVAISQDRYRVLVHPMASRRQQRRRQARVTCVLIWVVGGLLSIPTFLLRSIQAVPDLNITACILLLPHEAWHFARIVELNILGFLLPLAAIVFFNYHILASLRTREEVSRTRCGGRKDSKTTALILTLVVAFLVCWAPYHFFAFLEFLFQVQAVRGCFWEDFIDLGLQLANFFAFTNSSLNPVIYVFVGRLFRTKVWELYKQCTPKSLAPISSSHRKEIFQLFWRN
Description: (§1) Competitive Binding Assays: Assays were performed using 96-well MultiScreenₘₛ with glass fiber filter and PVDF support obtained from Millipore Corp, Billerica, Mass. (cat. no. MSFB N6B, lot no. R8AN42424). Wells of the MultiScreen plate were pre-soaked with 0.5% of cold Poly(ethyleneimine) (PEI) (cat. no. P3143, Sigma-Aldrich, St. Louis, Mo.) for 30 minutes. Afterward, wells were washed once with 50 mM of Tris-HCl pH 7.4. Total volume per wells was 200 μL. […] The MultiScreen plate was then incubated at 27° C. for 15 minutes with agitation at 300 rpm. The assay was stopped by suctioning the reaction solution through the bottom PVDF membrane filter and discarded. The membranes were washed 7x with 150 μL/well of cold 50 mM Tris-HCl pH 7.4. Radioactivity was counted using 1450 MicroBeta TriLux—Microplate Scintillation and Luminescence Counter (Perkin Elmer Inc., Shelton, Conn.).

[2] = biological target: T1, human bradykinin B1 receptor; test: saturation radioligand binding, CHO-K1::hB1R against HEK293T::GFP::hB1R membranes
Description: (§2) Assays were done using 96-well MultiScreenHTS with glass fiber filter and PVDF support obtained from Millipore Corp, Billerica, Mass. (cat. no. MSFB N6B, lot no. R8AN42424). Wells of the MultiScreen plate were pre-soaked with 0.5% of cold Poly(ethyleneimine) (PEI) (cat. no. P3143, Sigma-Aldrich, St. Louis, Mo.) for 30 minutes. Afterward, wells were washed once with 50 mM of Tris-HCl pH 7.4. Total volume per wells was 200 μL. […] The assay buffer contained 50 mM of Tris-HCl pH 7.4 and 5 mM of MgCl₂. The Multiscreen plate was incubated at 27° C. for 15 minutes. The assay was stopped by suctioning the reaction solution through the PVDF membrane filter, and washing the filter with ice cold 50 mM Tris-HCl pH 7.4. Scintillation fluid was added to each well, and the radioactivity was measured using a MicroBeta Trilux Microplate Scintillation and Luminescence Counter (Perkin Elmer Inc., Shelton, Conn.). Graphpad Prism 5 was used to calculate the affinity constant (Kd) and the receptor concentration (Bmax).

[3] = biological target: T1, human bradykinin B1 receptor; test: saturation radioligand binding, membranes of HEK293T::GFP::hB1R cells
Description: as §2

[4] = biological target: T1, human bradykinin B1 receptor; test: saturation radioligand binding, membranes of CHO-K1::hB1R cells
Description: as §2

[5] = biological target: T1, human bradykinin B1 receptor; test: average Ki of the competitive radioligand binding assays on hB1R membranes
Description: as §1

[6] = biological target: T1, human bradykinin B1 receptor; test: assay not described at this place; competitive binding presumed
[7] = biological target: T1, human bradykinin B1 receptor; test: competitive radioligand binding; hot ligand BK-ANT-ARC 12.5 nM; CHO-K1 hB1R membranes
Description: as §1

[8] = biological target: T1, human bradykinin B1 receptor; test: competitive radioligand binding; hot ligand BK-AG-ARC 12.5 nM; CHO-K1 hB1R membranes
Description: as §1

[9] = biological target: T1, human bradykinin B1 receptor; test: average Ki of the competitive radioligand binding assays on hB1R membranes (single assay)
Description: as §1

[10] = biological target: T1, human bradykinin B1 receptor; test: competitive radioligand binding; hot ligand BK-ANT-ARC 4.5 nM; CHO-K1 hB1R membranes
Description: as §1

B1: H-Lys-Arg-Pro-Pro-Gly-Phe-Ser-Pro-Leu-OH (BK-ANT, Bachem H-2582) (peptide)
peptide: H-KRPPGFSPL-OH
notes: Unlabelled control B1R antagonist bought from Bachem; also called Lys[Leu^8]-des-Arg^9-BK; [Leu^9,des-Arg^10]kallidin
B1 gave a Ki [1] of 0.49 nM.

B2: [3,4-prolyl-3,4-3H(N)] [Leu^9, Des-Arg^10]Kallidin (peptide)
peptide: KRPPGFSPL
modifications: also: 3,4-prolyl-3,4-3H(N) tritium label on proline
notes: Radioligand from American Radiolabeled Chemicals (ART1609) or Perkin Elmer (NET1096250UC); also called BK-ANT-ARC; BK-ANT-PE
B2 was tested, and the “fold lower Kd in CHO-K1::hB1R cells than in HEK293T::GFP::hB1R cells” value [2] was 6 fold, the Kd [3] was 3.46 nM and the Kd [4] was 0.574 nM.

For {DOTA-Ahx}-KRPPGFSPL (also: Ga complex of DOTA (natGa in assays, 68Ga in vivo), also called P03083) [Peptide 4: Ga-DOTA-Ahx-Lys-Arg-Pro-Pro-Gly-Phe-Ser-Pro-Leu], the Ki [5] was 2.55 nM, the Ki [1] was 2.47 nM and 3.57 nM and 2.23 nM and 1.93 nM and the Ki [6] was 12.4 nM.

B3: Peptide 3: Ga-DOTA-PEG2-Lys-Arg-Pro-Hyp-Gly-Cha-Ser-Pro-Leu (peptide)
peptide: KRPXGXSPL
modifications: N-terminal Ga-DOTA-PEG2- (PEG2 = 3-[2-(2-aminoethoxyl)ethoxy]propanoic acid); Hyp at position 4; Cha at position 6
notes: 68Ga-labelled in the in vivo imaging; also called Ga-68 Peptide 3
With B3 the Ki [5] was 16 nM and the Ki [1] was 13.3 nM and 17.1 nM and 17.6 nM and 16 nM.

In the case of KRPXGXSPL (N-terminal Ga-DOTA-Ahx-; Hyp at position 4; Cha at position 6) [Peptide 10: Ga-DOTA-Ahx-Lys-Arg-Pro-Hyp-Gly-Cha-Ser-Pro-Leu], the Ki [5] is reported as 27.8 nM and the Ki [1] is reported as 22.3 nM and 29 nM and 32 nM.

B4: Peptide 1: D-Pra-Ahx-Lys-Arg-Pro-Hyp-Gly-Cha-Ser-Pro-(D-Phe) (peptide)
peptide: KRPXGXSPF
modifications: N-terminal D-Pra-Ahx- (D-propargylglycine, 6-aminohexanoic acid); Hyp (hydroxyproline) at position 4; Cha (beta-cyclohexylalanine) at position 6; D-Phe at position 9
notes: Agonist-derived probe
Work on B4 yielded a Ki [7] of 74.6 nM, a Ki [8] of 10.9 nM and a Ki [5] of 32.2 nM.

B5: Peptide 2: DTPA-Ahx-Lys-Arg-Pro-Hyp-Gly-Cha-Ser-Pro-(D-Phe) (peptide)
peptide: KRPXGXSPF
modifications: N-terminal DTPA-Ahx- (printed 'DPA-Ahx' in Table 4); Hyp at position 4; Cha at position 6; D-Phe at position 9
B5 was tested, and the Ki [8] was 131 nM and the Ki [9] was 131 nM.

B6: Peptide 12: Ga-DOTA-Ahx-Lys-Arg-Pro-Hyp-Gly-Cha-Ser-Pro-(D-Phe) (peptide)
peptide: KRPXGXSPF
modifications: N-terminal Ga-DOTA-Ahx-; Hyp at position 4; Cha at position 6; D-Phe at position 9
notes: 68Ga-labelled in vivo
With B6 the Ki [5] was 25.4 nM and the Ki [1] was 19.7 nM and 29.1 nM and 27.5 nM.

In the case of {DOTA}-GGKRP[Hyp]G[Cha]SPL (also: Ga loaded in DOTA, 68Ga-labelled in vivo) [Peptide 8: Ga-DOTA-Gly-Gly-Lys-Arg-Pro-Hyp-Gly-Cha-Ser-Pro-Leu], the Ki [10] is reported as 8.63 nM and 12.1 nM, the Ki [5] is reported as 11.4 nM and the Ki [1] is reported as 13.5 nM.
